B1: Complement factor H (Homo sapiens), P08603 (parent)
chain: MRLLAKIICLMLWAICVAEDCNELPPRRNTEILTGSWSDQTYPEGTQAIYKCRPGYRSLGNVIMVCRKGEWVALNPLRKCQKRPCGHPGDTPFGTFTLTGGNVFEYGVKAVYTCNEGYQLLGEINYRECDTDGWTNDIPICEVVKCLPVTAPENGKIVSSAMEPDREYHFGQAVRFVCNSGYKIEGDEEMHCSDDGFWSKEKPKCVEISCKSPDVINGSPISQKIIYKENERFQYKCNMGYEYSERGDAVCTESGWRPLPSCEEKSCDNPYIPNGDYSPLRIKHRTGDEITYQCRNGFYPATRGNTAKCTSTGWIPAPRCTLKPCDYPDIKHGGLYHENMRRPYFPVAVGKYYSYYCDEHFETPSGSYWDHIHCTQDGWSPAVPCLRKCYFPYLENGYNQNYGRKFVQGKSIDVACHPGYALPKAQTTVTCMENGWSPTPRCIRVKTCSKSSIDIENGFISESQYTYALKEKAKYQCKLGYVTADGETSGSITCGKDGWSAQPTCIKSCDIPVFMNARTKNDFTWFKLNDTLDYECHDGYESNTGSTTGSIVCGYNGWSDLPICYERECELPKIDVHLVPDRKKDQYKVGEVLKFSCKPGFTIVGPNSVQCYHFGLSPDLPICKEQVQSCGPPPELLNGNVKEKTKEEYGHSEVVEYYCNPRFLMKGPNKIQCVDGEWTTLPVCIVEESTCGDIPELEHGWAQLSSPPYYYGDSVEFNCSESFTMIGHRSITCIHGVWTQLPQCVAIDKLKKCKSSNLIILEEHLKNKKEFDHNSNIRYRCRGKEGWIHTVCINGRWDPEVNCSMAQIQLCPPPPQIPNSHNMTTTLNYRDGEKVSVLCQENYLIQEGEEITCKDGRWQSIPLCVEKIPCSQPPQIEHGTINSSRSSQESYAHGTKLSYTCEGGFRISEENETTCYMGKWSSPPQCEGLPCKSPPEISHGVVAHMSDSYQYGEEVTYKCFEGFGIDGPAIAKCLGEKWSHPPSCIKTDCLSLPSFENAIPMGEKKDVYKAGEQVTYTCATYYKMDGASNVTCINSRWTGRPTCRDTSCVNPPTVQNAYIVSRQMSKYPSGERVRYQCRSPYEMFGDEEVMCLNGNWTEPPQCKDSTGKCGPPPPIDNGDITSFPLSVYAPASSVEYQCQNLYQLEGNKRITCRNGQWSEPPKCLHPCVISREIMENYNIALRWTAKQKLYSRTGESVEFVCKRGYRLSSRSHTLRTTCWDGKLEYPTCAKR
partner: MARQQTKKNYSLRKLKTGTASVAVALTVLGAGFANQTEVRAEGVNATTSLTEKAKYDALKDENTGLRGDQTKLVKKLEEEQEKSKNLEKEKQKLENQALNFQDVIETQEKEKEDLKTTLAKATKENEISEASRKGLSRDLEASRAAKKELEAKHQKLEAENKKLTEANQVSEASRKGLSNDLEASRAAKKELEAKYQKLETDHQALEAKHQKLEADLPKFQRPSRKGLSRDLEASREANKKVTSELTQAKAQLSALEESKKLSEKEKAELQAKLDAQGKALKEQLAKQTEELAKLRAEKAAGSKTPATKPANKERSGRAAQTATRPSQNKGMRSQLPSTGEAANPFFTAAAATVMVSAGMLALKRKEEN

The variants in the assay derive from B1. Particulars: with mx_strp9 ennX.
Consider Y402H, for which the “effect of a mutation on the interaction” value is reported as “decreasing interaction strength”.

Values taken from IntAct's records for PubMed 18627465.
